In patent US20160348112:

Biological target: Clumping factor A (ClfA) (Staphylococcus aureus NRS384 (USA300)) (UniProt Q2G015)
Experiment: filter
Conditions: BndU at every n (W); full-length clone also has fixed flanking regions not printed [BndU at 2,4,7,8,14,20,21,27,29,32,33,34,35,36,40]; SB18T, 5 mM MgCl2; full-length aptamer

Sequence of Clumping factor A (ClfA) (Staphylococcus aureus NRS384 (USA300)) (Q2G015 40-893): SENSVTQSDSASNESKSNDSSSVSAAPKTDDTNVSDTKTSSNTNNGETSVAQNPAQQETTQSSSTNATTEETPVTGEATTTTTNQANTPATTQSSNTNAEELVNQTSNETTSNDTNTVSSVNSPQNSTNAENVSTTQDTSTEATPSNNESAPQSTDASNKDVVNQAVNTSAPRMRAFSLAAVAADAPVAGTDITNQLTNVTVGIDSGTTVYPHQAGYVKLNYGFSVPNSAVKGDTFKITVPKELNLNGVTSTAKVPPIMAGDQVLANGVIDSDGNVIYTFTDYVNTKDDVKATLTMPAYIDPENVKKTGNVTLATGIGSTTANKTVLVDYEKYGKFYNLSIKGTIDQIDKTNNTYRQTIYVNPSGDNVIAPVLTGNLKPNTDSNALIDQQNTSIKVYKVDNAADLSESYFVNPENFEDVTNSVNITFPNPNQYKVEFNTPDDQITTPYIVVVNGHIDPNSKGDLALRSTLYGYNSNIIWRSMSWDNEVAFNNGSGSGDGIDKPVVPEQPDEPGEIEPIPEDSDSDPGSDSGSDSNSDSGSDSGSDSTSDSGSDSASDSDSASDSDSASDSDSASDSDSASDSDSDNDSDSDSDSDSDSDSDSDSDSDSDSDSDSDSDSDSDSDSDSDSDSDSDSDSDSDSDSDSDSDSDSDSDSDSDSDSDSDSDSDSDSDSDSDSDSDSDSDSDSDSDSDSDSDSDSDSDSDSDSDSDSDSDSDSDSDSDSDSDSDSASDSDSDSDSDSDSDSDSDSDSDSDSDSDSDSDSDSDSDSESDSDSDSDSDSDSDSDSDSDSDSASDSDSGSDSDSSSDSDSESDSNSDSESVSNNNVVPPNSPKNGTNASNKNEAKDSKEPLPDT

ATCTGGTTCAAAGTGGCGATTGGGCATCTGGTTTTTAAGT [4503-73]
Kd: 0.79 nM
